Target: the molecule itself
Test: SEC peak area ratio after coexpression of full-length heavy chain, light chain and Fc fragment

Protein	Homo full-length heavy chain (%)
IgG1 full-length heavy chain with E345R/K360E/D399M/Y407A/K409V (SEQ ID NO: 58) with light chain SEQ ID NO: 61 (antibody) heavy: QVQLQESGPGLVRPSQTLSLTCTVSGYSITSDHAWSWVRQPPGRGLEWIGYISYSGITTYNPSLKSRVTMLRDTSKNQFSLRLSSVTAADTAVYYCARSLARTTAMDYWGQGSLVTVSSASTKGPSVFPLAPSSKSTSGGTAALGCLVKDYFPEPVTVSWNSGALTSGVHTFPAVLQSSGLYSLSSVVTVPSSSLGTQTYICNVNHKPSNTKVDKRVEPKSCDKTHTCPPCPAPELLGGPSVFLFPPKPKDTLMISRTPEVTCVVVDVSHEDPEVKFNWYVDGVEVHNAKTKPREEQYNSTYRVVSVLTVLHQDWLNGKEYKCKVSNKALPAPIEKTISKAKGQPRRPQVYTLPPSREEMTENQVSLTCLVKGFYPSDIAVEWESNGQPENNYKTTPPVLMSDGSFFLASVLTVDKSRWQQGNVFSCSVMHEALHNHYTQKSLSLSP light: not shown	70.3%
IgG1 full-length heavy chain with E345R/Q347R/K360D/T366V/D399M/Y407A/K409V (SEQ ID NO: 55) with light chain SEQ ID NO: 61 (antibody) heavy: QVQLQESGPGLVRPSQTLSLTCTVSGYSITSDHAWSWVRQPPGRGLEWIGYISYSGITTYNPSLKSRVTMLRDTSKNQFSLRLSSVTAADTAVYYCARSLARTTAMDYWGQGSLVTVSSASTKGPSVFPLAPSSKSTSGGTAALGCLVKDYFPEPVTVSWNSGALTSGVHTFPAVLQSSGLYSLSSVVTVPSSSLGTQTYICNVNHKPSNTKVDKRVEPKSCDKTHTCPPCPAPELLGGPSVFLFPPKPKDTLMISRTPEVTCVVVDVSHEDPEVKFNWYVDGVEVHNAKTKPREEQYNSTYRVVSVLTVLHQDWLNGKEYKCKVSNKALPAPIEKTISKAKGQPRRPRVYTLPPSREEMTDNQVSLVCLVKGFYPSDIAVEWESNGQPENNYKTTPPVLMSDGSFFLASVLTVDKSRWQQGNVFSCSVMHEALHNHYTQKSLSLSP light: not shown	70.7%
IgG1 full-length heavy chain with E356K/D399K/K409E/K439E (SEQ ID NO: 36) with light chain SEQ ID NO: 61 (antibody) heavy: QVQLQESGPGLVRPSQTLSLTCTVSGYSITSDHAWSWVRQPPGRGLEWIGYISYSGITTYNPSLKSRVTMLRDTSKNQFSLRLSSVTAADTAVYYCARSLARTTAMDYWGQGSLVTVSSASTKGPSVFPLAPSSKSTSGGTAALGCLVKDYFPEPVTVSWNSGALTSGVHTFPAVLQSSGLYSLSSVVTVPSSSLGTQTYICNVNHKPSNTKVDKRVEPKSCDKTHTCPPCPAPELLGGPSVFLFPPKPKDTLMISRTPEVTCVVVDVSHEDPEVKFNWYVDGVEVHNAKTKPREEQYNSTYRVVSVLTVLHQDWLNGKEYKCKVSNKALPAPIEKTISKAKGQPREPQVYTLPPSRKEMTKNQVSLTCLVKGFYPSDIAVEWESNGQPENNYKTTPPVLKSDGSFFLYSELTVDKSRWQQGNVFSCSVMHEALHNHYTQESLSLSP light: not shown	73.3%
IgG1 full-length heavy chain with E356K/K392D/D399K/K409D (SEQ ID NO: 56) with light chain SEQ ID NO: 61 (antibody) heavy: QVQLQESGPGLVRPSQTLSLTCTVSGYSITSDHAWSWVRQPPGRGLEWIGYISYSGITTYNPSLKSRVTMLRDTSKNQFSLRLSSVTAADTAVYYCARSLARTTAMDYWGQGSLVTVSSASTKGPSVFPLAPSSKSTSGGTAALGCLVKDYFPEPVTVSWNSGALTSGVHTFPAVLQSSGLYSLSSVVTVPSSSLGTQTYICNVNHKPSNTKVDKRVEPKSCDKTHTCPPCPAPELLGGPSVFLFPPKPKDTLMISRTPEVTCVVVDVSHEDPEVKFNWYVDGVEVHNAKTKPREEQYNSTYRVVSVLTVLHQDWLNGKEYKCKVSNKALPAPIEKTISKAKGQPREPQVYTLPPSRKEMTKNQVSLTCLVKGFYPSDIAVEWESNGQPENNYDTTPPVLKSDGSFFLYSDLTVDKSRWQQGNVFSCSVMHEALHNHYTQKSLSLSP light: not shown	70.7%
IgG1 full-length heavy chain with E356K/K392D/D399K/K439E (SEQ ID NO: 48) with light chain SEQ ID NO: 61 (antibody) heavy: QVQLQESGPGLVRPSQTLSLTCTVSGYSITSDHAWSWVRQPPGRGLEWIGYISYSGITTYNPSLKSRVTMLRDTSKNQFSLRLSSVTAADTAVYYCARSLARTTAMDYWGQGSLVTVSSASTKGPSVFPLAPSSKSTSGGTAALGCLVKDYFPEPVTVSWNSGALTSGVHTFPAVLQSSGLYSLSSVVTVPSSSLGTQTYICNVNHKPSNTKVDKRVEPKSCDKTHTCPPCPAPELLGGPSVFLFPPKPKDTLMISRTPEVTCVVVDVSHEDPEVKFNWYVDGVEVHNAKTKPREEQYNSTYRVVSVLTVLHQDWLNGKEYKCKVSNKALPAPIEKTISKAKGQPREPQVYTLPPSRKEMTKNQVSLTCLVKGFYPSDIAVEWESNGQPENNYDTTPPVLKSDGSFFLYSKLTVDKSRWQQGNVFSCSVMHEALHNHYTQESLSLSP light: not shown	69.6%
IgG1 full-length heavy chain with K392D/D399K/K409D (SEQ ID NO: 50) with light chain SEQ ID NO: 61 (antibody) heavy: QVQLQESGPGLVRPSQTLSLTCTVSGYSITSDHAWSWVRQPPGRGLEWIGYISYSGITTYNPSLKSRVTMLRDTSKNQFSLRLSSVTAADTAVYYCARSLARTTAMDYWGQGSLVTVSSASTKGPSVFPLAPSSKSTSGGTAALGCLVKDYFPEPVTVSWNSGALTSGVHTFPAVLQSSGLYSLSSVVTVPSSSLGTQTYICNVNHKPSNTKVDKRVEPKSCDKTHTCPPCPAPELLGGPSVFLFPPKPKDTLMISRTPEVTCVVVDVSHEDPEVKFNWYVDGVEVHNAKTKPREEQYNSTYRVVSVLTVLHQDWLNGKEYKCKVSNKALPAPIEKTISKAKGQPREPQVYTLPPSREEMTKNQVSLTCLVKGFYPSDIAVEWESNGQPENNYDTTPPVLKSDGSFFLYSDLTVDKSRWQQGNVFSCSVMHEALHNHYTQKSLSLSP light: not shown	76.8%
IgG1 full-length heavy chain with K392L/T394W/F405A/Y407V (SEQ ID NO: 41) with light chain SEQ ID NO: 61 (antibody, also called Sample No. 200 full-length heavy chain) heavy: QVQLQESGPGLVRPSQTLSLTCTVSGYSITSDHAWSWVRQPPGRGLEWIGYISYSGITTYNPSLKSRVTMLRDTSKNQFSLRLSSVTAADTAVYYCARSLARTTAMDYWGQGSLVTVSSASTKGPSVFPLAPSSKSTSGGTAALGCLVKDYFPEPVTVSWNSGALTSGVHTFPAVLQSSGLYSLSSVVTVPSSSLGTQTYICNVNHKPSNTKVDKRVEPKSCDKTHTCPPCPAPELLGGPSVFLFPPKPKDTLMISRTPEVTCVVVDVSHEDPEVKFNWYVDGVEVHNAKTKPREEQYNSTYRVVSVLTVLHQDWLNGKEYKCKVSNKALPAPIEKTISKAKGQPREPQVYTLPPSREEMTKNQVSLTCLVKGFYPSDIAVEWESNGQPENNYLTWPPVLDSDGSFALVSKLTVDKSRWQQGNVFSCSVMHEALHNHYTQKSLSLSP light: not shown	72.7%
IgG1 full-length heavy chain with Q347E/S354Y/T366Y/Y407T (SEQ ID NO: 39) with light chain SEQ ID NO: 61 (antibody) heavy: QVQLQESGPGLVRPSQTLSLTCTVSGYSITSDHAWSWVRQPPGRGLEWIGYISYSGITTYNPSLKSRVTMLRDTSKNQFSLRLSSVTAADTAVYYCARSLARTTAMDYWGQGSLVTVSSASTKGPSVFPLAPSSKSTSGGTAALGCLVKDYFPEPVTVSWNSGALTSGVHTFPAVLQSSGLYSLSSVVTVPSSSLGTQTYICNVNHKPSNTKVDKRVEPKSCDKTHTCPPCPAPELLGGPSVFLFPPKPKDTLMISRTPEVTCVVVDVSHEDPEVKFNWYVDGVEVHNAKTKPREEQYNSTYRVVSVLTVLHQDWLNGKEYKCKVSNKALPAPIEKTISKAKGQPREPEVYTLPPYREEMTKNQVSLYCLVKGFYPSDIAVEWESNGQPENNYKTTPPVLDSDGSFFLTSKLTVDKSRWQQGNVFSCSVMHEALHNHYTQKSLSLSP light: not shown	70.4%
IgG1 full-length heavy chain with Q347R/K360E/D399V/F405T/K409W (SEQ ID NO: 31) with light chain SEQ ID NO: 61 (antibody) heavy: QVQLQESGPGLVRPSQTLSLTCTVSGYSITSDHAWSWVRQPPGRGLEWIGYISYSGITTYNPSLKSRVTMLRDTSKNQFSLRLSSVTAADTAVYYCARSLARTTAMDYWGQGSLVTVSSASTKGPSVFPLAPSSKSTSGGTAALGCLVKDYFPEPVTVSWNSGALTSGVHTFPAVLQSSGLYSLSSVVTVPSSSLGTQTYICNVNHKPSNTKVDKRVEPKSCDKTHTCPPCPAPELLGGPSVFLFPPKPKDTLMISRTPEVTCVVVDVSHEDPEVKFNWYVDGVEVHNAKTKPREEQYNSTYRVVSVLTVLHQDWLNGKEYKCKVSNKALPAPIEKTISKAKGQPREPRVYTLPPSREEMTENQVSLTCLVKGFYPSDIAVEWESNGQPENNYKTTPPVLVSDGSFTLYSWLTVDKSRWQQGNVFSCSVMHEALHNHYTQKSLSLSP light: not shown	72.1%
IgG1 full-length heavy chain with T350V/L351Y/T366L/K392L/T394W/F405A/Y407V (SEQ ID NO: 60) with light chain SEQ ID NO: 61 (antibody) heavy: QVQLQESGPGLVRPSQTLSLTCTVSGYSITSDHAWSWVRQPPGRGLEWIGYISYSGITTYNPSLKSRVTMLRDTSKNQFSLRLSSVTAADTAVYYCARSLARTTAMDYWGQGSLVTVSSASTKGPSVFPLAPSSKSTSGGTAALGCLVKDYFPEPVTVSWNSGALTSGVHTFPAVLQSSGLYSLSSVVTVPSSSLGTQTYICNVNHKPSNTKVDKRVEPKSCDKTHTCPPCPAPELLGGPSVFLFPPKPKDTLMISRTPEVTCVVVDVSHEDPEVKFNWYVDGVEVHNAKTKPREEQYNSTYRVVSVLTVLHQDWLNGKEYKCKVSNKALPAPIEKTISKAKGQPREPQVYVYPPSREEMTKNQVSLLCLVKGFYPSDIAVEWESNGQPENNYLTWPPVLDSDGSFALVSKLTVDKSRWQQGNVFSCSVMHEALHNHYTQKSLSLSP light: not shown	71.9%
IgG1 full-length heavy chain with T366W/L368A/Y407V (SEQ ID NO: 26) with light chain SEQ ID NO: 61 (antibody) heavy: QVQLQESGPGLVRPSQTLSLTCTVSGYSITSDHAWSWVRQPPGRGLEWIGYISYSGITTYNPSLKSRVTMLRDTSKNQFSLRLSSVTAADTAVYYCARSLARTTAMDYWGQGSLVTVSSASTKGPSVFPLAPSSKSTSGGTAALGCLVKDYFPEPVTVSWNSGALTSGVHTFPAVLQSSGLYSLSSVVTVPSSSLGTQTYICNVNHKPSNTKVDKRVEPKSCDKTHTCPPCPAPELLGGPSVFLFPPKPKDTLMISRTPEVTCVVVDVSHEDPEVKFNWYVDGVEVHNAKTKPREEQYNSTYRVVSVLTVLHQDWLNGKEYKCKVSNKALPAPIEKTISKAKGQPREPQVYTLPPSREEMTKNQVSLWCAVKGFYPSDIAVEWESNGQPENNYKTTPPVLDSDGSFFLVSKLTVDKSRWQQGNVFSCSVMHEALHNHYTQKSLSLSP light: not shown	73.8%
IgG2 full-length heavy chain with K392D/D399K/K409D (SEQ ID NO: 91) with light chain SEQ ID NO: 61 (antibody, also called Sample No. 212 full-length heavy chain) heavy: QVQLQESGPGLVRPSQTLSLTCTVSGYSITSDHAWSWVRQPPGRGLEWIGYISYSGITTYNPSLKSRVTMLRDTSKNQFSLRLSSVTAADTAVYYCARSLARTTAMDYWGQGSLVTVSSASTKGPSVFPLAPCSRSTSESTAALGCLVKDYFPEPVTVSWNSGALTSGVHTFPAVLQSSGLYSLSSVVTVPSSNFGTQTYTCNVDHKPSNTKVDKTVERKCCVECPPCPAPPVAGPSVFLFPPKPKDTLMISRTPEVTCVVVDVSHEDPEVQFNWYVDGVEVHNAKTKPREEQFNSTFRVVSVLTVVHQDWLNGKEYKCKVSNKGLPAPIEKTISKTKGQPREPQVYTLPPSREEMTKNQVSLTCLVKGFYPSDIAVEWESNGQPENNYDTTPPMLKSDGSFFLYSDLTVDKSRWQQGNVFSCSVMHEALHNHYTQKSLSLSP light: not shown	79.6%
